One experiment concerns the target T1, biotin-hPP (human, N-terminal Biotin-Ahx-; C-terminal amide (-NH2)).
T1 peptide: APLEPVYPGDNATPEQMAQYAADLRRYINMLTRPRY
Description: BLI (ForteBio Blitz), biotinylated peptide on streptavidin sensor, scFv in solution. The procedure: (§1) Affinity of the purified scFv for biotin-NPY, biotin-hPYY and biotin-hPP was determined using a Blitz system (ForteBio). Streptavidin Biosensors were blocked for 1 hr with 1% BSA in PBS. Biosensors were then coupled for 120 seconds with 1 μM solutions of biotinylated peptide followed by a 30 second baseline measurement. The sensors were then transferred to varying dilutions of purified scFv and association was measured for 300 seconds. The sensors were then transferred to PBS and dissociation was measured for 900 seconds. Global fits were determined for association and dissociation curves at two concentrations of each scFv against each of the peptides. All curves were referenced with peptide-only and scFv-only runs.
On the technique in general: Biolayer interferometry detects binding as a change in optical thickness at a sensor tip.

The target of a further experiment is biotin-NPY (N-terminal Biotin-Ahx-; C-terminal amide (-NH2)). The description is as above. As to the method: as §1
The target of experiment [1] is T2, biotin-NPY20-36 (SMILES …).
T2 construct: Captured on neutravidin or streptavidin plates
T2 peptide: {Biotin-Ahx}-YYSALRHYINLITRQRY-NH2
Description: soluble scFv ELISA, biotin-NPY20-36 on streptavidin. The procedure: (§2) In order to analyze antigen binding, ELISA plates were coated with 1 ug/mL biotin-NPY₂₀₋₃₆ on 10 ug/mL streptavidin […] streptavidin only.
(§3) Plates were then blocked with 5% skim milk/PB ST and incubated with supernatant from the IPTG-induced cultures. Binding of soluble scFv to wells was detected with peroxidase conjugated anti-cMyc.

Another experiment concerns the target biotin-hPYY (human, N-terminal Biotin-Ahx-; C-terminal amide (-NH2)). The experiment can be described thus: BLI (ForteBio Blitz), biotinylated peptide on streptavidin sensor, scFv in solution. As to the method:
as §1

The target in experiment [2] is T2, biotin-NPY20-36. Description: soluble scFv ELISA, biotin-NPY20-36 on streptavidin, anti-cMyc detection. The procedure:
as §2, §3
(ELISA stands for enzyme-linked immunosorbent assay.)

The target of experiment [3] is T2, biotin-NPY20-36. The experiment can be described thus: phage ELISA, scFv on phage, anti-M13 detection. As to the method: Overnight cultures were grown from clones transformed with the humanized 5E12-B7 scFv genes pHEN1 vector. Phages were then produced through overnight incubation after rescue with KM13 helper phage. In order to analyze antigen binding, ELISA plates were coated with 500 ng/mL biotin-NPY₂₀₋₃₆ on 10 ug/mL neutravidin; 10 ug/mL neutravidin only; 10 ug/mL Protein A or 10 ug/mL Protein L
ELISA plates were blocked with 5% skim milk/PB ST then incubated with phage culture supernatant which had also been blocked with 5% skim milk/1% Tween (final concentration). Binding of scFv-phage to wells was detected with Peroxidase conjugated anti-M13 secondary antibody.

The star is where a group is joined. Biotin = O=C1N[C@H]2[C@H](CS[C@H]2CCCCC(=O)*)N1; Ahx = NCCCCCC(=O)O

Chain of biotin-hPYY (human, N-terminal Biotin-Ahx-; C-terminal amide (-NH2)) (peptide, as listed by the source): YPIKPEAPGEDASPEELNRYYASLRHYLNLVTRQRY

B1: scFv-7 (human) (scFv)
scFv: EVQLLESGGGLVQPGGSLRLSCAASGFRFDYEDMGWVRQAPGKGLEWVSAIASDGDSTYYADSVKGRFTISRDNSKNTLYLQMNSLRAEDTAVYYCAKIYYDGAYRVFDYWGQGTLVTVSSGGGGSGGGGSGGGGSTDIQMTQSPSSLSASVGDRVTITCRASQSISSYLNWYQQKPGKAPKLLIYSASYLQSGVPSRFSGSGSGTDFTLTISSLQPEDFATYYCQQYSMLPTTFGQGTKVEIKR
notes: Human scFv from the Garvan-2 phage library; Whole entry used as named
For orientation: Kd means the free concentration of one partner at which half of the binding sites on the other are occupied at equilibrium, for simple one-to-one binding. Low readings indicate higher affinity, high ones lower affinity. As to B1, the “max signal (nm)” value with biotin-hPP was less than 0.2 nm. In the experiment with biotin-NPY, this molecule registered a Kd of 9250 nM. In addition, the binding result in the experiment with biotin-NPY20-36 [1] is “binds”.

B2: scFv-3 (human) (scFv)
scFv: EVQLLESGGGLVQPGGSLRLSCAASGFRFSDEDMGWVRQAPGKGLEWVSSIYGPSGSTYYADSVKGRFTISRDNSKNTLYLQMNSLRAEDTAVYYCAKDDVGTGTFDYWGQGTLVTVSSGGGGSGGGGSGGGGSTDIQMTQSPSSLSASVGDRVTITCRASQYIYYALNWYQQKPGKAPKLLIYDYSALQSGVPSRFSGSGSGTDFTLTISSLQPEDFATYYCQQSYYHPATFGQGTKVEIKR
notes: as for B1
B2 gave a Kd in the experiment with biotin-hPYY of 1910 nM. Further, the “max signal (nm)” value with biotin-hPP is less than 0.2 nm. In addition, in the experiment with biotin-NPY20-36 [1], the binding result is reported as “binds”.

B3: mouse 5E12-B7 scFv PSE2 (scFv, V domains shown, not shown: small tags and cut ends)
VH: QVQLQHPGTEVVKPGASVKLSCKASGYTFTNYWMHWVKQRPGQGLEWIGNIDPSNGGTNYNEKFKSKATLTVDKSSSTAYMQLSSLTSEDSAVYYCASFAYWGQGTLVTVSS
VL: DIQMTQSPASLSASVGETVTITCRASGNIHNYLAWYQQKQGKSPQLLVYNAKTLADGVPSRFSGSGSGTQYSLKISSLRPEDFGSYYCQHFWSPPFTFGSGTKLEIK
notes: also called 5E12 (mouse); mouse 5E12 PSE2
Consider B3, for which the Kd in the experiment with biotin-hPYY turned out to be 32.9 nM; with biotin-NPY, 22.1 nM. Further, the binding result with biotin-NPY20-36 [2] was “binds”.

B4: h5E12 IGHV1-46/DPK9 scFv (humanized) (scFv)
scFv: QVQLVQSGAEVKKPGASVKVSCKASGYTFTNYWMHWVRQAPGQGLEWMGNIDPSNGGTNYNEKFKSRVTMTRDTSTSTVYMELSSLRSEDTAVYYCASFAYWGQGTLVTVSSGGGGSGGGGSGGGGSTDIQMTQSPSSLSASVGDRVTITCRASGNIHNYLAWYQQKPGKAPKLLIYNAKTLADGVPSRFSGSGSGTDFTLTISSLQPEDFATYYCQHFWSPPFTFGQGTKVEIKR
notes: Humanized 5E12 scFv
Turning to B4, the Kd came to 1040 nM in the experiment with biotin-hPYY and 905 nM in the experiment with biotin-NPY. Also, the “max signal (nm)” value in the experiment with biotin-hPP is less than 0.2 nm. In addition, the binding result with biotin-NPY20-36 [3] is reported as “binds”.

B5: h5E12 IGHV1-69/DPK9 scFv (humanized) (scFv)
scFv: QVQLVQSGAEVKKPGSSVKVSCKASGYTFTNYWMHWVRQAPGQGLEWMGNIDPSNGGTNYNEKFKSRVTITADESTSTAYMELSSLRSEDTAVYYCASFAYWGQGTLVTVSSGGGGSGGGGSGGGGSTDIQMTQSPSSLSASVGDRVTITCRASGNIHNYLAWYQQKPGKAPKLLIYNAKTLADGVPSRFSGSGSGTDFTLTISSLQPEDFATYYCQHFWSPPFTFGQGTKVEIKR
notes: Humanized 5E12 scFv
For B5, the dissociation constant Kd in the experiment with biotin-hPYY was determined as 140 nM; in the experiment with biotin-NPY, 142 nM. For the same molecule, the “max signal (nm)” value with biotin-hPP was less than 0.2 nm. The binding result with biotin-NPY20-36 [3] was “binds”.

B6: scFv-6 (human) (scFv)
scFv: EVQLLESGGGLVQPGGSLRLSCAASGFRFSAEDMGWVRQAPGKGLEWVSSIASAGASTYYADSVKGRFTISRDNSKNTLYLQMNSLRAEDTAVYYCAKHMYSYAIFDYWGQGTLVTVSSGGGGSGGGGSGGGGSTDIQMTQSPSSLSASVGDRVTITCRASQDIADALNWYQQKPGKAPKLLIYAASSLQSGVPSKFSGSGSGTDFTLTISSLQPEDFATYYCQQGYVHPPTFGQGTKVEIKR
notes: as for B1
Regarding B6, the Kd with biotin-hPYY stood at 3240 nM; with biotin-NPY, 177 nM. Further, the “max signal (nm)” value in the experiment with biotin-hPP is less than 0.2 nm. The binding result with biotin-NPY20-36 [1] was “binds”.

Values taken from US20150307599A1 (GARVAN INSTITUTE OF MEDICAL RESEARCH, published 2015).
